Assay results taken from a protein production outcome set (Wang et al. 2014).

Experiment: label from the status in PepcDB records

Row | Sequence | protein production
1 | MIIDEKRVQEIKNGETSLGIEFGSTRIKAVLIANDFSILASGSFEWETSLENGVWTYSIDEIWKGLQYSYQKLFAEVKEKYGVVLSKIGSIGFSAMMHGYMAFDNKGELLVPFRTWRNTMTEEAAKKLTDLFKFNIPERWSIAHLYQAILRNEPHVEKIDFLTTLAGYIHWQLTGEKVLGIGDASGMFPIDTQTHNYDKNMLETFKNLPEVKKHSLDLEKLLPKVLLAGENAGVLTLEGAKKLDVSGNLQPGIPLCPPEGDAGTGMVATNSVAPRTGNVSAGTSIFAMVVLEKPLNRVHPEIDIVTTPSGDLVAMVHANNGCSDLEAWVNIFQQFTEAINVDMRKDLLYMALYTQAFQGDPDCGGVLAYNYFAGENITGVSEGRPMVVRKAKSNFNLPNFMRAHLFTSLGALKIGMDILLKDEAVKLDKLLGHGGLFKTPIVGQAAVAGAVNAPVSVMETAGEGGAWGIALLASYLRSKENDSTLPEFLSKNVFAGYVAEEVQPDPKDVKGFEEFIERYKKGIAIEQAAVEHLILEHHHHHH | failed
2 | MAKKKKEILFCDYYEDWVETYKVGAIEDVTLNKYYVAARQLRDICPKLLMSDFSRKDYQLIMNEYGKTHEKQTAKDFHHHIKAAILDAYHDGLLKSDPTYRAVIKGKEPGKKKLEHHHHHH | not failed
3 | MANIEYDPERQLFHLHNDTFSYVIQVIRGYLVKRYCGPALDHFSGTAKLEDFSHAFNIQNDAAPYSLTTLPLEYSTLMGGDYRTPAYAVRNGHGQLIGNLKFDHYQILAGNESFNGTLPTARTPHGQTLIITMHDETQTLAVRLKYTIVGDLPVLLKQVEYRNLTDTTLTITHAASLQLDFDDHAYDLITLTGAHLNEAKVTRQPLTPGKKSIGSNYGASGPQGVPATILAAPATNEFAGEALGVTLLWSGNFNYTAQVDQFDNSRLVMGLNPELFAWQLKPGKPFVTPEAAVAYTNDGLNDLSRIFHRFFADHVMPLPRKNLIEYNTWETTYFDVSEAKILAEIPKAEELGVELLVIDDGWFKNRPNDAGQLGDWVPDPAKFPHGLRPVADAIHARGLAFGLWVEPEMISENSELYATHPDWAMQYVGQKPLRSRNQLILDLSQRIVQDHLITVLTNLVRDNHIDYLKWDYNRHFSQPGSPVLPPDQQGEVGYRYTRGLYRVLKTLRDTFPKLLIENCSSGGGRLDGGMIAYTDQTWTSDFTDPVYRMKIMNGFSLFFPLKIFVSHFTASPNLQDARLTPLHTRALLSLVGITGIECPPSQLSPAEAAAVKASFAFYKANRKELQNGLLFRLQPSHVNQDEVCWLITNAAKTKALVLTSVGVTSPIPHYQHVLLHYLDPKLSYQIDNTKNATGLELNHAGVTLPLAHGDFSATLMELTAVTNLPQPTAAPTLEHHHHHH | failed
4 | MADQNRSEEKTVKSPNVFERVKEEIEAMGHHEKSKSRHHDKETHGTSDDIDESTPIDYVKGPGFFQRLKEEIEAIFNAVTPKRSSKK | failed
5 | TSSLQGNLLISVPRDFGLLFIAPNLPTFMAKHPHLHIEVEFNDKKIDLLSEGYDLALRIGYMEDSSLVSRKIGTTTVHFAASPNYLETNGIPQTPDDLEHHNGLLYKNAMNQVNWVGSRINQTQRFKIQSKVVSNSGFALL | failed
6 | MHTARFPSSATPSIFFRYFMALNEQDVARIARLALIELPPDQRGRAQAELNGILHLIERLQAVDTQGVEPLAHPLSAHEDITLRLREDAVSEQATEARRAELLANAPESADGLFLVPKVIE | failed
7 | PRTVKELTVSAGDNLIITLPDNEVELKAFVAPAPPVETTYNYEWNLISHPTDYQGEIKQGHKQTLNLSQLSVGLYVFKVTVSSENAFGEGFVNVTVKPAR | not failed
8 | MVDLVAKLKRGAPMLALLIVSTVLAGCSSSTAIKGSKDEGLRLARLLRDQGRVEAATEVYARLDSRDALKGAEMLEYASVAALARSPQQTLELYGRARQALGGDTNKMTPGEALAVCLGMGRTQLALGRNAMAQTDFACALKAQPNDAGALNGMGVVMDASGKHAEARQLFEKALQVNPADVAALNNLALSWLASGNTDKAISLLRSVDESNATSRLNLALAYLSGGRDDEARSALATIAQPQRIDGLMDELNQRLQQMQKDKSRGEALLLSSRQRLQLSAPE | failed
9 | MKRRAGLGGSMRSVVGFLSQRGLHGDPLLTQDFQRRRLRGCRNLYKKDLLGHFGCVNAIEFSNNGGQWLVSGGDDRRVLLWHMEQAIHSRVKPIQLKGEHHSNIFCLAFNSGNTKVFSGGNDEQVILHDVESSETLDVFAHEDAVYGLSVSPVNDNIFASSSDDGRVLIWDIRESPHGEPFCLANYPSAFHSVMFNPVEPRLLATANSKEGVGLWDIRKPQSSLLRYGGNLSLQSAMSVRFNSNGTQLLALRRRLPPVLYDIHSRLPVFQFDNQGYFNSCTMKSCCFAGDRDQHHNWKWRAQAVSFQPFLSLTRNGDADVDLKLAV | failed
10 | LAYEELRQREAQTAMQLAVNNALLTIKDRSRMLLAVCEQIDKLVPCTFLGIRVMDRDGNFRIFDNFMRETPSGFFPVSAHEKLDVPDFAEMARESFSLITSPGCFSGEAFQLLCDKYRLVGLVREKFNICSLISVRLWDLPGSCAGLIISDTSRAFDEHDQETVGLIVPQLSLALQNYLAFEEIDKLRRKLEGEKAYLFEEIKATHD | failed
11 | MDFWPEFMATSWGREFVAGGFGGVAGIISGYPLDTLRIRQQQSSKSGSAFSILRRMLAIEGPSSLYRGMAAPLASVTFQNAMVFQIYAIFSRSFDSSVPLVEPPSYRGVALGGVATGAVQSLLLTPVELIKIRLQLQQTKSGPITLAKSILRRQGLQGLYRGLTITVLRDAPAHGLYFWTYEYVRERLHPGCRKTGQENLRTMLVAGGLAGVASWVACYPLDVVKTRLQQGHGAYEGIADCFRKSVKQEGYTVLWRGLGTAVARAFVVNGAIFAAYEVALRCLFNQSPSPDIVTGD | failed
12 | MRIDLSVPKVGAELELNKVLGKGSSGSVSLIKYKSRLDGQTLYAAVKTSNIIHADSLLKEFQILSEFKGCSRIVQCYGTKVQETINEEGDVEFTIPMEYASGGSLRHFMSRFKDMKLPDALIRRFTRMILEGLAVIHGHGYVHCDLKPENILVFPSFELKISDFGLSKREGDSKWWLPSHPFAGTPVYMSPESISNGETRRGLDLWSLGCVVLEMYTGKRPWWDKNYDLGDLKKGSMPLISKDIPCDAKLFVMTCFASETNKRKNAFTLLRHCFLRGDVNKIIEPLVKSKNSNDIALELENIEHRLSQLRCISGG | failed
13 | MVVSKMNKDAQMRAAINQKLIETGERERLKELLRAKLIECGWKDQLKAHCKEVIKEKGLEHVTVDDLVAEITPKGRALVPDSVKKELLQRIRTFLAQHASL | failed
14 | MSLVLMAQATKPEQLQQLQTTYPDWTFKDAAAVTAADYDQIEVMYGNHPLLKTILARPTNQLKFVQVISAGVDYLPLKALQAAGVVVANTSGIHADAISESVLAAMLSVVRGYHAAWLNQRGARQWALPMTTSTLTGQQLLIYGTGQIGQSLAAKASALGMHVIGVNTTGHPADHFHETVAFTATADALATANFIVNALPLTPTTHHLFSTELFQQTKQQPMLINIGRGPAVDTTALMTALDHHQLSMAALDVTEPEPLPTDHPLWQRDDVLITPHISGQIAHFRATVFPIFAANFAQFVKDGTLVRNQVDLNRGYEGHHHHHH | not failed
15 | DGKVTKVFSSPLMARVQDLSSCAFPAPRISAEKTAAHEVDKDTITYTITVRNSGNLEATGTKFTDNLPGSYVPNSAKLNG | failed
16 | MHGPPESQEPCGTFGPDETTGATSTAASRGEARRLPRGGVLWALVDCNNFYASCERLFRPDLKGRPVVVLSNNDGCVIARSAEAKALGVPMGAPEFKVRDMLRAHDVAVFSSNYALYGDLSQRVMRTLATVVPRVEVYSIDEAFIPLPAALAADPVAVGRTLRQRVAQWVGIPVSVGVGPTRTLAKLANRLSKQDSAYGNVFDLTPETVDMDRVLASVDVGDVWGVGRRSAEMLRGRGILTARALRDADPLWVRQRMTVTGWRTQQELRGMPCLTDDDLPVPRRSIRSSRSFGQMVRTLEPLREAVATFTARAVAKARAEGLVASCIEVHIRTPRHTERPRYDETTTITLPCPTADTGLCIRHALTGLERIFREGYLYAKAGVTLFGLEPAAGRQGSLLDLLDGSHEHKARRERLMAALDAVNLRHGRGSIRHGAEGDPGAAWHMSQKYRSPRYTTAWEELPEVLCR | failed
17 | TERMDKVGDALEEVLSKALSQRTITVGVYEAAKLLNVDPDNVVLCLLAADEDDDRDVALQIHFTLIQAFCCENDINILRVSNPGRLAELLLLETDAGPAASEGAEQPPDLHCVLVTNPHSSQWKDPALSQLICFCRESRYMDQWVPVINLPER | failed
18 | MEQEEPCEAKETASSSIEPKTPNPNVPDSIPAIDSDSSLSEEEIVTEKDRGIVTLSPLCKQRIDSASISDCVLVSDDEIIESLYQNLLRVILSLQQIQSVAVVPEIWCFDGCKTPPPSSRNLDSNMVSDTCPGAPMKLTKISRNIDSGLRRKLF | failed
19 | MDESKKISLGQFFTPTHIVKYMIGLMTKNKNASILEPSSGNGVFLDSLIQLGYTNLTSYEIDGDIISHPFVINSSFITSYDKPQYDSIIGNPPYVRWKNLSELQKKELKDNSIWKMYCNSLCDYFYIFIIKSILQLKVGGELIFICPDYFFSTKNAEGLRKFLINNGSFEKIILFNESKVFHGVSSSVVIFKYIKGKNIDNINIINIDSKSPIKSEDIE | failed
20 | MSLSSGEHEASRVLRERDYRWEGTEEEAYKAEGTHFSGARRQTLVGRPAGQEAPAFETRYFEVEPGGYTTLERHEHTHVVMVVRGHAEVVLDDRVEPLTPLDCVYIAPHAWHQIHATGANEPLGFLCIVDSDRDRPQRPDADDLARMCADPAVARRIRTEGHHHHHH | not failed
21 | MAGLFTPKDAAMNIAIVTINQENAAIASWLAAQDFSGCTLAHWQIEPQPVVAEQVLDAMVEQWQRTPADVVLFPPGTFGDELSTRLAWRLHGASICQVTSLDIPTVSMRKSHWGNALTATLQTEKRPLCLSLARQAGAAKNATLPSGMQQLNIVPGALPDWLVSTEDLKNVSRDPLAEARRVLVVGQGGEADNQEIVMLAEKLGAEVGYSRARVMNGGVDAEKVIGISGHLLAPEVCIVVGASGAAALMAGVRNSKFMVAINHDASAAVFSQADIGVVDDWKVVLEALVTNIHAEYQ | failed
22 | MSNESETDVDEETADEEEQAEGLQKGDVVKLAYTARTVDGGQLVDTTDEEVAEDDGIDTEQQEFGPRTIVLGENHIFPDVEQDIYGKEVGDEGDVTVAAADAFGEYDEEEVRTVSKDKIPEDDRYPGAHVDLEGEHGHVETIIGGRARVDFNHPLAGEDVEYDYEVLEEVTDREEKAQGIIQMMLDMELDVWFETDTVEEEQLVESEDEDEDEESEPEYETVEVEKETLYIEATPQLTMNQQWMMGKQQIAQQLTQLLDIDRIIVQEEIGGGGMGMPGMMGGMGGAGGADIEDALEDADVDAEEIVEEIEGAEE | failed
23 | MELISIIVPVYNGEIYIGRCLDSILEQTYQNLEIIIIDDGSSDRTGDICEKYFLEDRRIKYFYQENRGQSVARNNGVLRCTGDWIAFLDSDDVYLPYSIEVMYNIQKATNADIVLTSIGNFNNTYNTSINSQYLKEIKLYTLEVALEEMYYGKTYGVSPLAKLYPRSNLLSNPYPEGKIHEDMDTTFKLISCASKIAVCDIVTAVVYFSDNSTTRTKFNERMLYFFEAIQNNIVFINLNFPHNTSLISAVIYNEVFGGIDICGKMIDFKLYDTVDYYRKKYRKYFKTILFNNRISVKEKVKYILFISSIRYFTIVRKIYNLRLSRNGLEHHHHHH | failed
24 | MASRGLDLWLDEHVWKRKQEIGVKGENLLLPDLWLDFLQLSPIFQRKLAAVIACVRRLRTQATVYPEEDMCMAWARFCDPSDIKVVILGQDPYHGGQANGLAFSVAYGFPVPPSLRNIYAELHRSLPEFSPPDHGCLDAWASQGVLLLNTILTVQKGKPGSHADIGWAWFTDHVISLLSERLKACVFMLWGAKAGDKASLINSKKHLVLTSQHPSPLAQNSTRKSAQQKFLGNNHFVLANNFLREKGLGEIDWRL | not failed
